Experiment [1] concerns the target T1, SARS-CoV-2 spike S2P (ectodomain of the SARS-CoV-2 S trimer) (SARS-CoV-2, ancestral (P0DTC2 sequence), stabilised). Nature of the experiment: cell-based or functional assay.
Experiment [2] deals with T1, SARS-CoV-2 spike S2P (ectodomain of the …). Nature of the experiment: SPR. (SPR reads the build-up and loss of mass on a sensor chip optically.)
The target is the same in experiment [3]. Nature of the experiment: cryo-EM structure.
Experiment [4] has the same target. Nature of the experiment: cryo-EM structure. This is another data set of the same source.
Experiment [5] shares this target. Nature of the experiment: cryo-EM structure. This is another data set of the same source.

Where two headings read alike, the source gives them in different places.

B1: 2-4 IgG with the somatic hypermutation A60T (heavy chain) reverted to germline (antibody, V domains shown)
VH: not shown
VL: QSALTQPPSASGSPGQSVTISCTGTSSDVGGYNYVSWYQQHPGKAPKLMIYEVSKRPSGVPDRFSGSKSGNTASLTVSGLQAEDEADYYCSSYAGSNNLVFGGGTKLTVL
As to B1, the “pseudovirus neutralization, fold reduction against 2-4 IgG” value in experiment [1] was approximately 9 fold. In experiment [2], the “fold reduction of binding affinity against 2-4 IgG” value is approximately 6 fold.

B2: 2-43 IgG with the paratope somatic hypermutation S76T (heavy chain) reverted to germline (antibody, V domains shown)
VH: not shown
VL: QSALTQPASVSGSPGQSITISCTGTSSDVGGYNYVSWYQQHPGKAPKLMIYDVSKRPSGVSNRFSGSKSGNTASLTISGLQAEDEGDYYCSSYTSSSTWVFGGGTKLTVL
For B2, the “pseudovirus neutralization potency, fold reduction against 2-43 IgG” value in experiment [1] was approximately 5 fold. Further, the “fold reduction of IgG-apparent binding affinity against 2-43 IgG” value in experiment [2] was approximately 6 fold.

B3: 2-15 Fab (Fab, V domains shown)
VH: QVQLVQSGAEVKKPGASVRVSCKASGYTFTGYYMHWVRQAPGQGLEWMGWINPISDGTNYAQKFQGWVTMTRDTSISTVYMELSRLRSDDTAVYYCARGGSRCSGGNCYGWAYDAFDIWGQGTMITVSS
VL: QSALTQPASVSGSPGQSITISCTGTSSDVGGYNFVSWYQQHPGKAPKLMIYDVSKRPSGVSNRFSGSKSGNTASLTISGLQAEDEADCYCSSYTSSSTFVFGTGTKVTVL
B3: the “neutralization potency of the Fab, fold less than its IgG form” value in experiment [1] is approximately 95 fold. For the same molecule, in experiment [3], the “stoichiometry N” value stood at 1 Fab per spike trimer.

B4: 2-15 IgG with the paratope somatic hypermutation N53I (heavy chain) reverted to germline (antibody, V domains shown)
VH: QVQLVQSGAEVKKPGASVRVSCKASGYTFTGYYMHWVRQAPGQGLEWMGWINPNSDGTNYAQKFQGWVTMTRDTSISTVYMELSRLRSDDTAVYYCARGGSRCSGGNCYGWAYDAFDIWGQGTMITVSS
VL: QSALTQPASVSGSPGQSITISCTGTSSDVGGYNFVSWYQQHPGKAPKLMIYDVSKRPSGVSNRFSGSKSGNTASLTISGLQAEDEADCYCSSYTSSSTFVFGTGTKVTVL
On to B4, for which the “pseudovirus neutralization potency, fold reduction against 2-15 IgG” value in experiment [1] came out at 217 fold. The “fold reduction of binding affinity against 2-15 IgG” value in experiment [2] was 56 fold.

B5: 2-43 Fab (Fab, V domains shown)
VH: not shown
VL: QSALTQPASVSGSPGQSITISCTGTSSDVGGYNYVSWYQQHPGKAPKLMIYDVSKRPSGVSNRFSGSKSGNTASLTISGLQAEDEGDYYCSSYTSSSTWVFGGGTKLTVL
As for B5, the “stoichiometry N” value in experiment [4] is 3 Fab per spike trimer. Further, in experiment [1], the “neutralization potency of the Fab, fold less than its IgG form” value was approximately 140 fold.

B6: H4 Fab (Fab, V domains shown)
VH: not shown
VL: DIQMTQSPLSLPVTPGEPASISCRSSQSLLDSDDGNTYLDWYLQKPGQSPQLLIYTLSYRASGVPDRFSGSGSGTDFTLKISRVEAEDVGVYYCMQRIEFPLTFGGGTKVEIK
Consider B6, for which the “stoichiometry N” value in experiment [5] is 1 Fab per spike trimer.

For orientation: stoichiometry N means a count of units in the complex or per binding partner.

The record behind these values is publication PMC7972811 (Cell Reports, 2021).
